Assays:
Assay in all cases: cell-based or functional assay
[1] = molecular target: T1, IFN-γ receptor (IFNGR1, IFNGR2) (UniProt P15260)
T1 sequence (looked up) 1: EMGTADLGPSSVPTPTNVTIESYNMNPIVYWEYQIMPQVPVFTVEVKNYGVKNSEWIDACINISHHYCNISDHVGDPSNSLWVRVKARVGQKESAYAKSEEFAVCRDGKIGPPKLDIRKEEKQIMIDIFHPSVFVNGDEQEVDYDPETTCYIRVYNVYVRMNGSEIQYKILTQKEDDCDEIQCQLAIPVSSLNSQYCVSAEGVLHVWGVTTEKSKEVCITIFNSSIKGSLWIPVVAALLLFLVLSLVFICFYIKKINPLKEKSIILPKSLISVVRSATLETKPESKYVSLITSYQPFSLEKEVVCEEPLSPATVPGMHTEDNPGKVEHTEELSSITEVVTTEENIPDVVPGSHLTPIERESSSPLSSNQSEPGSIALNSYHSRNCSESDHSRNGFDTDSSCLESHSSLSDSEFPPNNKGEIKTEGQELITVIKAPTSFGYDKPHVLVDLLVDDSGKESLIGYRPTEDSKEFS
T1 sequence (looked up) 2: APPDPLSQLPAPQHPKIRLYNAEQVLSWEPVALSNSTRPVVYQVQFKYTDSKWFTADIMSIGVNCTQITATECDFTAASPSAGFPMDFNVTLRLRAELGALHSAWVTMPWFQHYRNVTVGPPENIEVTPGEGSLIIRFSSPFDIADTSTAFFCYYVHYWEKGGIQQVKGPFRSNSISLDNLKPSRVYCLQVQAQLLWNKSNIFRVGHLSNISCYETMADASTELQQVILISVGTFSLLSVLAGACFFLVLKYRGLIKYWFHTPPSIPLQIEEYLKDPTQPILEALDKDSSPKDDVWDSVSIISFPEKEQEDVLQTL

[2] = molecular target: human IL-10 receptor (hIL-10Rα, hIL-10Rβ) (human) (UniProt Q13651)
Sequence of human IL-10 receptor (hIL-10Rα, hIL-10Rβ) (human) (Q13651 22-578, chain 1 of 2): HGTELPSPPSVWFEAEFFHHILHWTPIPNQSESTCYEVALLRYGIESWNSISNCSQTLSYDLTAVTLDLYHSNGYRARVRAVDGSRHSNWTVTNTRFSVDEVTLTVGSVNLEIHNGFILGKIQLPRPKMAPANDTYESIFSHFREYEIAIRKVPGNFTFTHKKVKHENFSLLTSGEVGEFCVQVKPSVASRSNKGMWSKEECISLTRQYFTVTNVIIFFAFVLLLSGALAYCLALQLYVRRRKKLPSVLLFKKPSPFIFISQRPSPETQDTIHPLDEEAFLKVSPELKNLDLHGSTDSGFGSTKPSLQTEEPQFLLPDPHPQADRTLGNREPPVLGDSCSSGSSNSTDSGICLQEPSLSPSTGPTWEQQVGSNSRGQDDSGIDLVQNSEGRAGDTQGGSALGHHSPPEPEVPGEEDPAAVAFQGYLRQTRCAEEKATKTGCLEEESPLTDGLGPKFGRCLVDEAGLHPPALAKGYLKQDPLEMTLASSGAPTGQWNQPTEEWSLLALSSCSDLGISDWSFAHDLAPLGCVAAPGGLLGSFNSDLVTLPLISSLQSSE
Sequence of human IL-10 receptor (hIL-10Rα, hIL-10Rβ) (human) (Q08334 20-325, chain 2 of 2, further chain): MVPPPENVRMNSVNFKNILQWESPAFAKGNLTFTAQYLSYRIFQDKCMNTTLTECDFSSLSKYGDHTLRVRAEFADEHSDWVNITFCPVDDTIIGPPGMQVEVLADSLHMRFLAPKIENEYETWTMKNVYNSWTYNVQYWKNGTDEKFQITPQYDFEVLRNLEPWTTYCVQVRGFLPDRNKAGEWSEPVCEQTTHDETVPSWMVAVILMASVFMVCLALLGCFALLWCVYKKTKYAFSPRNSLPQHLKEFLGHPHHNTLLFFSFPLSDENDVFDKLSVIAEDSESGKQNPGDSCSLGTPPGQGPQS

[3] = molecular target: human IL-12 receptor complex (IL-12Rβ1, IL-12Rβ2) (human) (UniProt P42701)
Sequence of human IL-12 receptor complex (IL-12Rβ1, IL-12Rβ2) (human) (Q99665 24-862, chain 2 of 2, other chains not shown): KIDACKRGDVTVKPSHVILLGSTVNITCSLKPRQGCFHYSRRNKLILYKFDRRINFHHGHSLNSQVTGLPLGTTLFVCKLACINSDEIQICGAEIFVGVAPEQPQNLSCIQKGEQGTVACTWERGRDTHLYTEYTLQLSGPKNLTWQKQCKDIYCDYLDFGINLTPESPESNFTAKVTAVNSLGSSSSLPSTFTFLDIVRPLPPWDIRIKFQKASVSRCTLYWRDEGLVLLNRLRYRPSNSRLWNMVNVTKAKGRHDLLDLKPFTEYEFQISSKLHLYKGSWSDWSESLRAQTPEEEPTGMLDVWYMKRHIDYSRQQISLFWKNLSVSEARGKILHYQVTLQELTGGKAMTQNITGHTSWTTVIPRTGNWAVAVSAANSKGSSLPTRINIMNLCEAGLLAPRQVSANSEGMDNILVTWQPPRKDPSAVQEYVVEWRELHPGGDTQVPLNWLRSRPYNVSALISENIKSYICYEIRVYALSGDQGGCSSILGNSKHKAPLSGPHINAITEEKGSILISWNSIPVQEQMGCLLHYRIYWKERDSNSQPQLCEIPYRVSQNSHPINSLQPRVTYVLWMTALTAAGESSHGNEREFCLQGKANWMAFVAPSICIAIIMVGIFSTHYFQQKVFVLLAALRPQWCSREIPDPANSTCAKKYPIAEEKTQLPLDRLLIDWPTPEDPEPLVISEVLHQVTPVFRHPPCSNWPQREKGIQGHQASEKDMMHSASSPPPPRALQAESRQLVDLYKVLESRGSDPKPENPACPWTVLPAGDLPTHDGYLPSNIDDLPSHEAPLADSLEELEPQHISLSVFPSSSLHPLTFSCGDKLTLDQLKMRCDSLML

[4] = molecular target: IL-23 receptor complex (IL-12Rβ1, IL-23R) (UniProt P42701)
Sequence of IL-23 receptor complex (IL-12Rβ1, IL-23R) (Q5VWK5 24-629 limits assumed, chain 2 of 2, other chains not shown): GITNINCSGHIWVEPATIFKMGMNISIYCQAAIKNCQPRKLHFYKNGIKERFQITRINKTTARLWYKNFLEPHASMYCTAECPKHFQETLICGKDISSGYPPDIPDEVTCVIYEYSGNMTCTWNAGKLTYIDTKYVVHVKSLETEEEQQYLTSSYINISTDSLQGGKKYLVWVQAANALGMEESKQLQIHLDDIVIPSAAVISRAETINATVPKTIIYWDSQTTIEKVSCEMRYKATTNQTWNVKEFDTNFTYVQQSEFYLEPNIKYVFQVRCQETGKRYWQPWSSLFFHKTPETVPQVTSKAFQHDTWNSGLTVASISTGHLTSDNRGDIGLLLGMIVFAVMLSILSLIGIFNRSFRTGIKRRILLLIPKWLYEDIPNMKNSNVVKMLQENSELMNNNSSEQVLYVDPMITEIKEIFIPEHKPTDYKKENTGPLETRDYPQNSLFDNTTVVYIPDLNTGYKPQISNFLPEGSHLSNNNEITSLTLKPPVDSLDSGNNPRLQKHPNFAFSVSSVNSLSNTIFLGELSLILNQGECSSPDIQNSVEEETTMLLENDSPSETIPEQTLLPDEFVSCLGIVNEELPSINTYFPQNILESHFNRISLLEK

Sequence of recombinant human IL-12 (free state) (P29460 23-328 limits assumed): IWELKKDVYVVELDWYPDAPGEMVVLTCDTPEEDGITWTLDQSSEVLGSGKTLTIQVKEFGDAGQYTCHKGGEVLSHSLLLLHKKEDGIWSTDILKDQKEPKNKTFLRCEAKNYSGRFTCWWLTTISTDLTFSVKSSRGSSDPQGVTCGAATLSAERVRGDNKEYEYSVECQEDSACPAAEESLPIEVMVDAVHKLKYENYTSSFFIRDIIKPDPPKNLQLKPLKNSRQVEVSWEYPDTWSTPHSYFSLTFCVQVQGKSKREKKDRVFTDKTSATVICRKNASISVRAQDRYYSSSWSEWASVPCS
Sequence of recombinant human IL-12 (free state) (P29459 23-219 limits assumed): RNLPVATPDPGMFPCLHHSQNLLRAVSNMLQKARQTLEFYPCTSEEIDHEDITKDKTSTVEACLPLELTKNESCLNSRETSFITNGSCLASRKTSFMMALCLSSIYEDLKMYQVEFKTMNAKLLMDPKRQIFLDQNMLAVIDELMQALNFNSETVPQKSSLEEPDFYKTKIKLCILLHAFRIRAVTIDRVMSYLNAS
Sequence of recombinant human IL-23 (free state) (P29460 23-328 limits assumed): as the sequence (P29460 23-328 limits assumed) above
Sequence of recombinant human IL-23 (free state) (Q9NPF7 20-189 limits assumed): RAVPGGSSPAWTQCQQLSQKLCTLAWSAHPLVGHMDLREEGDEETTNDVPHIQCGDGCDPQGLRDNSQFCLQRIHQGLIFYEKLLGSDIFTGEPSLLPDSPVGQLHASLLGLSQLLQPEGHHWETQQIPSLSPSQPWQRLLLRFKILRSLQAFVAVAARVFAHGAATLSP
Sequence of recombinant human IFN-γ (free state) (P01579 24-166 limits assumed): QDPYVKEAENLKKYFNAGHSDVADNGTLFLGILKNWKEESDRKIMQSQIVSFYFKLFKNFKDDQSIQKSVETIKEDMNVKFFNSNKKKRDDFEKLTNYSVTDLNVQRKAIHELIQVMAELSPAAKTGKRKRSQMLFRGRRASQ

recombinant human IFN-γ (free state) (from UniProt P01579 24-166) (ligand)
IFN-γ biological activity, HEK-IFN-γ cells [1]: 100% | IFN-γ biological activity, HEK-PD-1-IFN-γ cells [1]: 100% | PD-L1 expression (anti-PD-L1 APC, FACS), HEK-CD4-IFN-γ cells [1]: 67 MFI | PD-L1 expression (anti-PD-L1 APC, FACS), HEK-IFN-γ cells [1]: 75 MFI

recombinant human IL-10 (free state) (from UniProt P22301 19-178) (ligand)
IL-10 biological activity, HEK-IL-10 cells [2]: 100% | IL-10 biological activity, HEK-PD-1-IL-10 cells [2]: 100%

recombinant human IL-12 (free state) (from UniProt P29460 23-328; P29459 23-219) (ligand)
IL-12 biological activity (IFN-γ release), CD4+ T cells [3]: 100% | IL-12 biological activity (IFN-γ release), CD8+ T cells [3]: 100% | IL-12 biological activity, HEK-IL-12 [3]: 100% | IL-12 biological activity, HEK-IL-12-PD-1 [3]: 100% | IL-12 biological activity, HEK-IL-12-PD-1 (high) [3]: 100% | IL-12 biological activity, HEK-IL-12-PD-1 (low) [3]: 100% | IL-12 biological activity, HEK-IL-12 cells [3]: 100% | IL-12 biological activity, HEK-PD-1-IL-12 [3]: 100% | IL-12 biological activity, HEK-PD-1-IL-12 cells [3]: 100% | PBMC (IFN-γ ng/ml) [3]: 2300 ng/mL

recombinant human IL-23 (free state) (from UniProt P29460 23-328; Q9NPF7 20-189) (ligand)
IL-23 biological activity (IFN-γ release), CD4+ T cells [4]: 100% | IL-23 biological activity (IFN-γ release), CD8+ T cells [4]: 100% | IL-23 biological activity, HEK-IL-23 cells [4]: 100% | IL-23 biological activity, HEK-PD-1-IL-23 cells [4]: 100%

Reference: patent publication US20240190962A1
